The values that follow come from US20190002527A1 (CHILDREN S MEDICAL CENTER, published 2019).

One assay concerns the target T1, β1-integrin (human, UniProt P05556 21-798).
T1 construct: Endogenous β1-integrin in lysates of human HUVE or HEK293T cells; No signal peptide limits are stated; also called B1-integrin; ITGB1
The experiment in a line: co-IP from transfected HEK293T cells, IP anti-β1-integrin, blot anti-HA. From the text:
(§1) FIG. 2A depicts a schematic representation of TRPV4. […] The right panel gives the Western blotting for the expression of each transgene in total cell lysates of respective transfectants.

For assay [1], the target named is T2, TRPV4 (transient receptor potential vanilloid 4) (human, UniProt Q9HBA0 1-871).
T2 construct: Endogenous TRPV4 in lysates of human HUVE or HEK293T cells, co-immunoprecipitation; also called TRPV4 membrane ion channel
As to the kind of experiment: co-IP from transfected HEK293T cells, IP anti-TRPV4, blot anti-HA.
Excerpt: as §1

The target in assay [2] is T3, CD98 (cluster of differentiation 98) (human, UniProt Q01650 1-507).
T3 construct: Endogenous CD98 in lysates of human HUVE or HEK293T cells; also called LAT1; transmembrane amino acid transporter CD98
T3 sequence (Q01650 whole entry): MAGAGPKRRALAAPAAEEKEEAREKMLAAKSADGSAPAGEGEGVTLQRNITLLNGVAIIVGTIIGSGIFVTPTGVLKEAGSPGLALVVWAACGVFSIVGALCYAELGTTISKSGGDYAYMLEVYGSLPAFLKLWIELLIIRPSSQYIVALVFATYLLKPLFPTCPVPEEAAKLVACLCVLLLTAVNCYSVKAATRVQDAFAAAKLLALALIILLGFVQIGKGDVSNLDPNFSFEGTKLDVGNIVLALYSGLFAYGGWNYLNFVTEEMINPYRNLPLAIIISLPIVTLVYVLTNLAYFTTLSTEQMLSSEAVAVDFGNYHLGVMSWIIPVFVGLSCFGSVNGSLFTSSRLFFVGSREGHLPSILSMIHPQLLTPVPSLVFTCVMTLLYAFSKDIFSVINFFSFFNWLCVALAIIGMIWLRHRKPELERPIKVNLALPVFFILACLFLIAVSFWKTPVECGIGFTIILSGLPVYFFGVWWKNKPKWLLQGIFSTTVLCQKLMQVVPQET
The experiment in a line: co-IP from transfected HEK293T cells, IP anti-CD98, blot anti-myc.
Excerpt: as §1

T1 sequence (P05556 21-798 limits assumed): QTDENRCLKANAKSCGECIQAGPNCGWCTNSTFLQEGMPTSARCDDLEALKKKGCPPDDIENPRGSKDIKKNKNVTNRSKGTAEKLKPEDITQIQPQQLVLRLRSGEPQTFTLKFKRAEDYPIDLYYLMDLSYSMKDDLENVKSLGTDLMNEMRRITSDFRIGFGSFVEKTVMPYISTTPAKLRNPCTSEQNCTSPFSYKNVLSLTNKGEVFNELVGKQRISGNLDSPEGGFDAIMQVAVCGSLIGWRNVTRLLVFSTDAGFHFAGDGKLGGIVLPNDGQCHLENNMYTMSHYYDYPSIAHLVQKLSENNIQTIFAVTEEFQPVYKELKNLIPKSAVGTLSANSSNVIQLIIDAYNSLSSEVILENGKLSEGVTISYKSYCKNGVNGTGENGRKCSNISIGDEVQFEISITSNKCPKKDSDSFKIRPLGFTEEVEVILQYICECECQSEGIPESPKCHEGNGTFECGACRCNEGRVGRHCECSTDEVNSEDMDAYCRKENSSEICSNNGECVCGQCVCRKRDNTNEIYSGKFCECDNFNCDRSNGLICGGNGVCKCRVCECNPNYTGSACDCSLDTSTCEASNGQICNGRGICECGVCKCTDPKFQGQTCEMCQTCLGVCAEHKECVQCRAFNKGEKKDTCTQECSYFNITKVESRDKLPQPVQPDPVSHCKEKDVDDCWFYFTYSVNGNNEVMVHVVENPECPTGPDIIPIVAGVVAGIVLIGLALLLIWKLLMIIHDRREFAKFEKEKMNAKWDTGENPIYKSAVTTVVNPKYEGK

B1: HA-linked CD98 that lacks high homology domain (ΔHH) (other)
chain: MELQPPEASIAVVSIPRQLPGSHSEAGVQGLSAGDDSETGSDCVTQAGLQLLASSDPPALASKNAEVTVETGFHHVSQADIEFLTSIDPTASASGSAGITGTMSQDTEVDMKEVELNELEPEKQPMNAASGAAMSLAGAEKNGLVKIKVAEDEAEAAAACRELPAQKWWHTGALYRIGDLQAFQGHGAGNLAGLKGRLDYLSSLKVKGLVLGPIHKNQKDDVAQTDLLQIDPNFGSKEDFDSLLQSAKKKSIRVILDLTPNYRGENSWFSTQVDTVATKVKDALEFWLQAGVDGFQVRDIENLKDASSFLAEWQNITKGFSEDRLLIAGTNSSDLQQILSLLESNKDLLLTSSYLSDSGSTGEHTKSLVTQYLNATGNRWCSWSLSQARLLTSFLPAQLLRLYQLMLFTLPGTPVFSYGDEIGLDAAALPGQPMEAPVMLWDESSFPDIPGAVSANMTVKGQSEDPGSLLSLFRRLSDQRSKERSLLHGDFHAFSAGPGLFSYIRHWDQNERFLVVLNFGDVGLSAGLQASDLPASASLPAKADLLLSTQPGREEGSPLELERLKLEPHEGLLLRFPYAA
notes: Built from 'deletion of a 50 amino acid (160-210aa) high homology domain'; also called CD98 lacking the high homology domain; not shown: HA tag
For the molecule B1, the binding result (with β1-integrin; in assay [1]) was “no binding” in each case.

B2: myc-linked TRPV4 lacking all ankyrin repeat domains (ΔAR1-3) (other)
chain: MADSSEGPRAGPGEVAELPGDESGTPGGEAFPLSSLANLFEGEDGSLSPSPADASRPAGPGDGRPNLRMKFQGAFRKGVPNPIDLLESTLYESSVVPGPKKAPMDSLFDYGTYRHHSSDNKRWRKKIIEKQPQSPKAPAPQPPPILKVFNRPILFDIVSRGSTADLDGLLPFLLTHKKRLTDEEFREPSTGKTCLPKALLNLSNGRNDTIPVLLDIAERTGNMREFINSPFRDIYYQARGRFFQPKDEGGYFYMRRQDSRGNTVLHALVAIADNTRENTKFVTKMYDLLLLKCARLFPDSNLEAVLNNTRHLSRKFKDWAYGPVYSSLYDLSSLDTCGEEASVLEILVYNSKIENRHEMLAVEPINELLRDKWRKFGAVSFYINVVSYLCAMVIFTLTAYYQPLEGTPPYPYRTTVDYLRLAGEVITLFTGVLFFFTNIKDLFMKKCPGVNSLFIDGSFQLLYFIYSVLVIVSAALYLAGIEAYLAVMVFALVLGWMNALYFTRGLKLTGTYSIMIQKILFKDLFRFLLVYLLFMIGYASALVSLLNPCANMKVCNEDQTNCTVPTYPSCRDSETFSTFLLDLFKLTIGMGDLEMLSSTKYPVVFIILLVTYIILTFVLLLNMLIALMGETVGQVSKESKHIWKLQWATTILDIERSFPVFLRKAFRSGEMVTVGKSSDGTPDRRWCFRVDEVNWSHWNQNLGIINEDPGKNETYQYYGFSHTVGRLRRDRWSSVVPRVVELNKNSNPDEVVVPLDSMGNPRCDGHQQGYPRKWRTDDAPL
notes: also called TRPV4 lacking all three ankyrin repeat domains; not shown: myc tag
In the case of B2, the binding result in assay [2] was “no binding”.
